Test results: patent US20210063414A1, “METHODS FOR PREVENTING AND/OR TREATING BONE LOSS CONDITIONS BY MODULATING IRISIN” (Dana-Farber Cancer Institute, Inc., priority 2018, published 2021)

Key:
[1] = molecular target: T1, MLO-Y4 cell surface proteins (Mus musculus, UniProt O88689); assay: Crosslinking/co-immunoprecipitation/mass spectrometry (TMT quantitative proteomics) to identify irisin receptors; format: binding; conditions: TMT ratio, Pcdha4 Protocadherin alpha-4
T1 construct: endogenous in cells; host or cells: MLO-Y4
T1 sequence (O88689 30-947): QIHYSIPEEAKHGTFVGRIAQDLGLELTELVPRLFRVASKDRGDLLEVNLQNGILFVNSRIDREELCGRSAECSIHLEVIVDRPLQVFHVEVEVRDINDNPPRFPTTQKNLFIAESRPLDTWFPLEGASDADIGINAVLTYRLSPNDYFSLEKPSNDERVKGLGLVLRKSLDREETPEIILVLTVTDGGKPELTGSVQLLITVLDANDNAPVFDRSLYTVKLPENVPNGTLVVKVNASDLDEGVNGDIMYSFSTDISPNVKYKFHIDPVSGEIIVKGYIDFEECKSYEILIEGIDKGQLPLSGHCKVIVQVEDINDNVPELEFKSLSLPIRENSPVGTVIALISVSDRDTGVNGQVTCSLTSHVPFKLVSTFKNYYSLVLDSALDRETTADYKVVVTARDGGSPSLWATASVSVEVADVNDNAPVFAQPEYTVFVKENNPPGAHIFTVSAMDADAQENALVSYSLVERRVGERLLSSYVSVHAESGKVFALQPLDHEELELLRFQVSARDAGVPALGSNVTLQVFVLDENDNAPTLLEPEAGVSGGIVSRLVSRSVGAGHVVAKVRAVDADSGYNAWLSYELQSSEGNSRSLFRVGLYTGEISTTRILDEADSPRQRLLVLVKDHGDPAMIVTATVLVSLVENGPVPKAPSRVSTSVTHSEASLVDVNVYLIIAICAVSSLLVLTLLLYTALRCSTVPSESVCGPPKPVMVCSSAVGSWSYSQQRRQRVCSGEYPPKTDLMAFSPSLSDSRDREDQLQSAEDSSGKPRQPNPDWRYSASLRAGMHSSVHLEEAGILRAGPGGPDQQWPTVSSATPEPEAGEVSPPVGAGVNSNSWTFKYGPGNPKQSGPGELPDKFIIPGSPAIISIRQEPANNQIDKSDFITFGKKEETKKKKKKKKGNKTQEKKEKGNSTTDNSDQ
Summary of the method: (§1)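 Relative protein abundance came from 6-plex TMT MS3 quantitation on an Orbitrap Fusion Lumos, after in-gel trypsin digestion of Coomassie-stained SDS-PAGE lanes. Input was a Ni-NTA pulldown (250 mM imidazole elution) of lysates from murine MLO-Y4 cells. These cells were treated on ice with His-tagged irisin or adipsin (10 nM, 20 min) in serum-free medium, then crosslinked with 1.5 mM DTSSP for 30 min.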

[2] = molecular target: T2, MLO-Y4 cell surface proteins (Mus musculus, UniProt P16460); assay: as above; format: binding; conditions: co-precipitated protein Ass1 (ASSY_MOUSE)
T2 construct: endogenous in cells; host or cells: MLO-Y4
T2 sequence (P16460 1-412): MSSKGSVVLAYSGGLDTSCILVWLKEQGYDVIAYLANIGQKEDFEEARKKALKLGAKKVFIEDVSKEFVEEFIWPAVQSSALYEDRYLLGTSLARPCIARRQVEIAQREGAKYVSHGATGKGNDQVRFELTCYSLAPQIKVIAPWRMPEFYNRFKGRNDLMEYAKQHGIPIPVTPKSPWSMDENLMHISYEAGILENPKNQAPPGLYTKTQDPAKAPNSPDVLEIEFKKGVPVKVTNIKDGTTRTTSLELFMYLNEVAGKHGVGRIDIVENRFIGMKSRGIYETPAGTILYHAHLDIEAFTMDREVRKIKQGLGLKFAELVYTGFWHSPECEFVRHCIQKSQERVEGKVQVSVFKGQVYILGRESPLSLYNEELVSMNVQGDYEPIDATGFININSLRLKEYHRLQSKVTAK
Summary of the method: as §1

B1: irisin: secreted cleaved form of FNDC5; recombinant human/mouse irisin with C-terminal his tag produced in HEK293 cells (protein)
chain: DSPSAPVNVTVRHLKANSAVVSWDVLEDEVVIGFAISQQKKDVRMLRFIQEVNTTTRSCALWDLEEDTEYIVHVQAISIQGQSPASEPVLFKTPREAEKMASKNKDEVTMKE
modifications: left off: small tags and cut ends
notes: secreted cleaved form of FNDC5; recombinant human/mouse irisin with C-terminal his tag produced in HEK293 cells
- irsin/adipsin [1]: 4.39
- TMT signal-to-noise ratio [2]: 3.2933
- irisin/adipsin TMT signal-to-noise ratio [2]: 0.012
